Experimental data taken from patent publication US20120114652A1 (AbbVie / Abbott, published 2012).
Substitutions are numbered along the chain they refer to. One block for each binder: values may come before it.

Key:
Test in all cases: cell-based or functional assay
rat PAI-1 = target: T1, rat PAI-1 (rat, UniProt P20961 24-402)
T1 sequence: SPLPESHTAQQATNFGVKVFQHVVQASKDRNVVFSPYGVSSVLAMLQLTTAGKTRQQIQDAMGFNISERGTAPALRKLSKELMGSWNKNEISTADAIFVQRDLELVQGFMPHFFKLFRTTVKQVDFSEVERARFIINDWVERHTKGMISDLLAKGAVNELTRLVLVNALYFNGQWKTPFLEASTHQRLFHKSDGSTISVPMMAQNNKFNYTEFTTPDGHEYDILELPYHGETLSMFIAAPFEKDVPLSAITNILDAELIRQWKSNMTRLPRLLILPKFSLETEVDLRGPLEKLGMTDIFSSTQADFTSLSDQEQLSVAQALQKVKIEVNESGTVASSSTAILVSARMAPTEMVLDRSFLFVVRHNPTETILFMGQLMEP

[1] = target: T2, human PAI-1, active, wild-type, non-glycosylated (E. coli-derived) (human, UniProt P05121 24-402)
cynomolgus PAI-1 = cynomolgus PAI-1 (cynomolgus, UniProt P05121 24-402 (human entry), limits assumed)
mouse PAI-1 = target: T3, mouse PAI-1 (mouse, UniProt P22777 24-401)
T3 sequence: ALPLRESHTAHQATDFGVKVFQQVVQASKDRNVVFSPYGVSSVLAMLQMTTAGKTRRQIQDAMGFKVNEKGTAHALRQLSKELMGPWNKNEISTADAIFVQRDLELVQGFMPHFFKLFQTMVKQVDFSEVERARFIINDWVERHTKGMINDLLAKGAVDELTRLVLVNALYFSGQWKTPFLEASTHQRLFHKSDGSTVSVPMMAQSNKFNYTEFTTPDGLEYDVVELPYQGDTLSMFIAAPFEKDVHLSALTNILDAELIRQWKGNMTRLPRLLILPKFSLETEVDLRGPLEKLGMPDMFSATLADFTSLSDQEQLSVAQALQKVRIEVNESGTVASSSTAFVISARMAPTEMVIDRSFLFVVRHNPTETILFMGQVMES

[2] = target: T2, human PAI-1, active, wild-type, …; remark: listed apart in the source

- IC50 chromogenic (rat PAI-1): 245 nM
- IC50 ratio rat/human (rat PAI-1): 61.4
- IC50 chromogenic [1]: 4 nM
- IC50 chromogenic (cynomolgus PAI-1): 1.2 nM
- IC50 ratio cyno/human (cynomolgus PAI-1): 0.3
- IC50 chromogenic (mouse PAI-1): 211 nM
- IC50 ratio mouse/human (mouse PAI-1): 52.9
B1: Antibody 26, scFv (scFv, V domains shown)
VH: QVQLQQSGAEVKKPGTSVKVSCKASGGTFSSYAISWVRQAPGQGLEWMGGIIPIFGTANYAQKFQGRVTITADESTSTAYMELSSLRSEDTAVYYCAREKRQWLEGHFDYWGRGTPVTVSS
VL: DIQMTQSPSFLSASIGDRVTITCRASEGIYHTLAWYQQKPGKAPKLLIYRASSLASGAPSRFSGSGSGTDFTLTISSLQPDDFATYYCQQYSNYPLTFGGGTKLEIK

- IC50 chromogenic (rat PAI-1): 530 nM
- IC50 ratio rat/human (rat PAI-1): 891
- IC50 chromogenic [1]: 0.6 nM
- IC50 chromogenic (cynomolgus PAI-1): 1.1 nM
- IC50 ratio cyno/human (cynomolgus PAI-1): 1.8
- IC50 chromogenic (mouse PAI-1): 553 nM
- IC50 ratio mouse/human (mouse PAI-1): 929
B2: Antibody 02, scFv (scFv, V domains shown)
VH: B1 VH with Q5V, T16S, I54T, P116L
VL: B1 VL with F10T, I15V, T32S, R50K, A58V, D70E, N93D, L104V

- IC50 chromogenic (rat PAI-1): 406 nM
- IC50 ratio rat/human (rat PAI-1): 81.2
- IC50 chromogenic [1]: 5 nM
- IC50 chromogenic (cynomolgus PAI-1): 1.5 nM
- IC50 ratio cyno/human (cynomolgus PAI-1): 0.3
- IC50 chromogenic (mouse PAI-1): 413 nM
- IC50 ratio mouse/human (mouse PAI-1): 82.6
B3: Antibody 22, scFv (scFv, V domains shown)
VH: B1 VH with T16S, S31G, I54T, A61S, S85G
VL: B1 VL with P8L, T32A

- IC50 HT-1080 Exo PAI-1 [2]: 9.5 nM
- IC50 chromogenic (cynomolgus PAI-1): 0.5 nM
- IC50 chromogenic (mouse PAI-1): 12.9 nM
B4: Antibody 03, IgG4, not germlined (antibody, V domains shown)
VH: B1 VH with T16S, I54T, S85G
VL: B1 VL with H31R, T32S, R50K, S77G

- IC50 chromogenic (rat PAI-1): 322 nM
- IC50 ratio rat/human (rat PAI-1): 24.6
- IC50 chromogenic [1]: 13.1 nM
- IC50 chromogenic (cynomolgus PAI-1): 4.6 nM
- IC50 ratio cyno/human (cynomolgus PAI-1): 0.4
- IC50 chromogenic (mouse PAI-1): 172 nM
- IC50 ratio mouse/human (mouse PAI-1): 13.1
B5: Antibody 25, scFv (scFv, V domains shown)
VH: B1 VH with T16S, I54T, S85G, K100R, R113Q
VL: B1 VL with G28S, T32E, R50K, D70A

- IC50 chromogenic (rat PAI-1): 78.2 nM
- IC50 ratio rat/human (rat PAI-1): 34.4
- IC50 chromogenic [1]: 2.3 nM
- IC50 chromogenic (cynomolgus PAI-1): 0.6 nM
- IC50 ratio cyno/human (cynomolgus PAI-1): 0.3
- IC50 chromogenic (mouse PAI-1): 27.8 nM
- IC50 ratio mouse/human (mouse PAI-1): 12.2
B6: Antibody 12, scFv (scFv, V domains shown)
VH: B1 VH with T16S, I54T, G56P, S85G
VL: B1 VL with T32N

- IC50 chromogenic (rat PAI-1): 297 nM
- IC50 ratio rat/human (rat PAI-1): 165
- IC50 chromogenic [1]: 1.8 nM
- IC50 chromogenic (cynomolgus PAI-1): 0.1 nM
- IC50 ratio cyno/human (cynomolgus PAI-1): 0.1
- IC50 chromogenic (mouse PAI-1): 54.9 nM
- IC50 ratio mouse/human (mouse PAI-1): 30.5
B7: Antibody 03, scFv (scFv, V domains shown)
VH: B1 VH with T16S, I54T, S85G
VL: B1 VL with H31R, T32S, R50K, S77G

- IC50 chromogenic (rat PAI-1): 140 nM
- IC50 ratio rat/human (rat PAI-1): 48.6
- IC50 chromogenic [1]: 2.9 nM
- IC50 chromogenic (cynomolgus PAI-1): 1.2 nM
- IC50 ratio cyno/human (cynomolgus PAI-1): 0.4
- IC50 chromogenic (mouse PAI-1): 247 nM
- IC50 ratio mouse/human (mouse PAI-1): 85.8
B8: Antibody 13, scFv (scFv, V domains shown)
VH: B1 VH with T16S, I54T, S85D
VL: B1 VL with T32S

- IC50 chromogenic (rat PAI-1): 296 nM
- IC50 ratio rat/human (rat PAI-1): 132
- IC50 chromogenic [1]: 2.2 nM
- IC50 chromogenic (cynomolgus PAI-1): 0.5 nM
- IC50 ratio cyno/human (cynomolgus PAI-1): 0.2
- IC50 chromogenic (mouse PAI-1): 334 nM
- IC50 ratio mouse/human (mouse PAI-1): 149
B9: Antibody 10, scFv (scFv, V domains shown)
VH: B1 VH with T16S, I54T
VL: B1 VL with T20A, T32S, K103R

- IC50 chromogenic (rat PAI-1): 860 nM
- IC50 ratio rat/human (rat PAI-1): 172
- IC50 chromogenic [1]: 5 nM
- IC50 chromogenic (cynomolgus PAI-1): 0.5 nM
- IC50 ratio cyno/human (cynomolgus PAI-1): 0.1
- IC50 chromogenic (mouse PAI-1): 718 nM
- IC50 ratio mouse/human (mouse PAI-1): 144
B10: Antibody 05, scFv (scFv, V domains shown)
VH: B1 VH with T16S, I54T, G56S, Q65R, S85G
VL: B1 VL with T32Q

- IC50 chromogenic (rat PAI-1): 7.9 nM
- IC50 ratio rat/human (rat PAI-1): 0.3
- IC50 chromogenic [1]: 26 nM
- IC50 chromogenic (cynomolgus PAI-1): 10.8 nM
- IC50 ratio cyno/human (cynomolgus PAI-1): 0.4
- IC50 chromogenic (mouse PAI-1): 6.4 nM
- IC50 ratio mouse/human (mouse PAI-1): 0.2
B11: Antibody 19, scFv (scFv, V domains shown)
VH: B1 VH with T16S, G56D, S85G, K100R
VL: B1 VL with Q3R, T32E, D70E
